One series concerns the target T1, sclerostin-LRP binding (Homo sapiens, UniProt O75197).
T1 construct: expresses LRP5 extracellular domains 1 and 2 fused to alkaline phosphatase; made in house; host or cells: LRP5R1/2-AP from transfected 293T cells (conditioned medium)
T1 sequence (O75197 32-641 limits assumed): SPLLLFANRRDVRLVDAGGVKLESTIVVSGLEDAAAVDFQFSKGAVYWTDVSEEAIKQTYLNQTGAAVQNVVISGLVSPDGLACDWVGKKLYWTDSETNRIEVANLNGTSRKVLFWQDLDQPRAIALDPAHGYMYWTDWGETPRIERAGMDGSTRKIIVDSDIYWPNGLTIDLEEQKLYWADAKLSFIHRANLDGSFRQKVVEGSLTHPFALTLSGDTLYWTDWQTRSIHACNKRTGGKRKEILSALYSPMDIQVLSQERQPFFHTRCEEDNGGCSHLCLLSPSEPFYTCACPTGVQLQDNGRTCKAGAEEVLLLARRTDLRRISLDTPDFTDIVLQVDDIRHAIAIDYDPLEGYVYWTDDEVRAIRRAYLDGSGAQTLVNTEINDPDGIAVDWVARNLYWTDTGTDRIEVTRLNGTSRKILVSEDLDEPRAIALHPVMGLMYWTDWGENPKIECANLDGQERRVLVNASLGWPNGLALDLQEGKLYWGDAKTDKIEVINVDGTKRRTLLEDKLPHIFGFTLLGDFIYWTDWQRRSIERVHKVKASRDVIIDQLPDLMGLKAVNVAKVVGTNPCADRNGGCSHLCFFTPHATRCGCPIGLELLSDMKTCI
As to the kind of experiment: Sclerostin binding to LRP in the presence of peptides. The conditions noted are these: 667 μM peptide concentration; FIG. 12. The protocol:
Various amounts of unmodified sclerostin or the in vitro treated sclerostin from Example 1 were diluted into 80 μl of TBST buffer and added to individual wells of 96 well plates. After overnight incubation, unbound proteins were removed after which point the coated plates were blocked with 3% nonfat milk in PBS. The plates were than decanted and 0.5×LRP5R1/2AP conditioned medium was added to the plates. After 2.5 hours, the conditioned medium was removed and the 96 well plates were washed five times for three minutes with TBST. The alkaline phosphatase activity in each well was then determined using the Tropix luminescence assay kit (Invitrogen, Carlsbad, Calif.).
Sclerostin binding to LRP in the presence or absence of the sulfated or unsulfated peptides, at 667 μM peptide concentration, was tested using the binding assay essentially as described in Example 3.

In series [1] the target is T2, LRP5 extracellular domains 1 and 2 fused to alkaline phosphatase (Homo sapiens, UniProt O75197).
T2 construct: expresses LRP5 extracellular domains 1 and 2 fused to alkaline phosphatase; made in house; host or cells: 293T cells, transfected; concentrated conditioned medium
T2 sequence (O75197 32-641 limits assumed): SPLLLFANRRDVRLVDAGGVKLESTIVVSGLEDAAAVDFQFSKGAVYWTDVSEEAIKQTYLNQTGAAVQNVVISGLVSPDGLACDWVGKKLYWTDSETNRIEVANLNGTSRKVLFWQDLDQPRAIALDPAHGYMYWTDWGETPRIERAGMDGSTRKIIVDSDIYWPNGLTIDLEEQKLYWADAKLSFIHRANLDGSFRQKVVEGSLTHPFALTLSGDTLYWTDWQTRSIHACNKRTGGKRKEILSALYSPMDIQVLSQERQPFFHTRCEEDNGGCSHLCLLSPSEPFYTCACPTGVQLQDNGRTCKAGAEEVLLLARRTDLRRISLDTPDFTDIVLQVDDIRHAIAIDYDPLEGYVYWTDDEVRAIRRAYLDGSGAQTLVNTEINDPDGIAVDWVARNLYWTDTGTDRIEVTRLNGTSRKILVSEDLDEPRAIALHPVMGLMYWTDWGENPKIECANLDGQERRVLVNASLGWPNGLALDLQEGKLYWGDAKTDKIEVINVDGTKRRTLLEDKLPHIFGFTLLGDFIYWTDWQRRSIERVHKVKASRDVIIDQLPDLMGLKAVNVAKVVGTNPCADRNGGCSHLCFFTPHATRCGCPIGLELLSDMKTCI
Briefly: Binding of AlkPhos-LRP5 to plate-coated sclerostin. Particulars: TPST-1-treated vs untreated recombinant sclerostin; FIG. 2.

Series [2] has as its system Wnt induced alkaline phosphatase activity. As to the kind of experiment: Wnt 3a induced alkaline phosphatase activity in 10T1/2 cells. Type of series: cell-based. The conditions noted are these: 24 hours, vs untreated sclerostin, highest level of sclerostin input, FIG. 3. Here is the method: Growing cultures of 10T1/2 cells were washed with PBS and trypsinized for 5 minutes. Cells were resuspended at a concentration of 6×10^5 cells/ml and 10 μl were seeded into individual wells of a Costar 96 well plate (Corning, Inc.). Wnt 3a and either the untreated sclerostin or the sclerostin from Example 1 were added and the plates were incubated at 37° C. for 24 hours. 50 μl of universal lysis buffer (from the Luciferase Reporter Gene Assay, Roche Applied Science, Indianapolis, Ind.) was added to each well at ambient temperature for 5 minutes. Detection of alkaline phosphatase was measured by the addition of 50 μl of ready-to-use CPSD with Sapphire Enhancer (Applied Biosystems) followed by an incubation at ambient temperature for 25 minutes.

For a further series, the system named is Wnt signaling. As to the kind of experiment: Cell-based luciferase assay using Wnt reporter cells (Dkk1 inhibition of Wnt signaling). The conditions noted are these: Dkk1 from insect cells untreated (sulfated) vs chlorate treated (unsulfated); FIG. 10.

This is an account of results in patent US9403882B2, “Sulfation of Wnt pathway proteins” (priority 2010, dated 2016).

No end group written: not given here. *: point of attachment. sulfate = O=S(=O)(O)*

Procedure for Wnt signaling: These four Dkk1 preparations were used at three concentrations in a cell-based luciferase assay using the Wnt reporter cells essentially as described in U.S. Patent Publication 2006/0198791 to determine the effect of sulfation on the ability of Dkk1 to inhibit Wnt signaling. Briefly, the cells were seeded in 96-well microtiter plates at 2×10^5 cells per well, in 50 μl assay medium. After incubation at 37° C. in a 5% CO2 atmosphere overnight, 50 μl DMEM was added to each well. Wnt3a was then added, to a final concentration of 300 ng/ml, followed by addition of either buffer, sulfated Dkk1 or unsulfated Dkk1, where Dkk1 was added to a final concentration of 0.4, 0.133 or 0.044 μg/ml. The plates were then incubated at 37° C. in a 5% CO2 atmosphere for 6 h. Luciferase substrate was then added and chemiluminescence was measured. Each treatment was performed in duplicate.

Consider “H-C-R-S-A-K-A-N-Q-A-E-L-E-N-A-Y-OH (H-HCRSAKANQAELENAY-OH) [PRN8831]”, for which the “inhibition of sclerostin-LRP binding” value with sclerostin-LRP binding is “inhibition of sclerostin-LRP binding”. On the same count and under the same terms, the value for “H-P-E-L-G-E-Y-P-E-P-P-P-E-L-E-C-NH2 (H-HPELGEYPEPPPELEC-NH2) [PRN8829]” was “inhibition of sclerostin-LRP binding”.

As for “PRN8830: sulfated P43, sequence of sclerostin amino acids 37-52 where 43 is the sulfation site (HPELGEY(sulfate)PEPPPELEC-NH2)”, in the series with sclerostin-LRP binding, the “inhibition of sclerostin-LRP binding” value was “inhibition of sclerostin-LRP binding”. Consider “mouse versions of sclerostin: mouse sclerostin, TPST-treated compared with untreated”, for which the “amount of AlkPhos-LRP5 bound to the plates” value in series [1] is “essentially similar results”. As for “sclerostin treated in vitro with TPST: human sclerostin (R&D Systems) sulfated in vitro with human TPST1 and PAPS”, the “blockage of Wnt induced alkaline phosphatase activity” value in series [2] was “significantly (P=0.006) more efficient blockage of Wnt induced alkaline phosphate activity”.

B1: sulfated Dkk1: Dkk1 prepared in insect cells untreated with chlorate (protein, UniProt O94907 32-266, looked up)
Dickkopf-related protein 1: TLNSVLNSNAIKNLPPPLGGAAGHPGSAVSAAPGILYPGGNKYQTIDNYQPYPCAEDEECGTDEYCASPTRGGDAGVQICLACRKRRKRCMRHAMCCPGNYCKNGICVSSDQNHFRGEIEETITESFGNDHSTLDGYSRRTTLSSKMYHTKGQEGSVCLRSSDCASGLCCARHFWSKICKPVLKEGQVCTKHRRKGSHGLEIFQRCYCGEGLSCRIQKDHHQASNSSRLHTCQRH
modifications: sulfated, insect cell-expressed
notes: Dkk1 prepared in insect cells untreated with chlorate
In the case of B1, in the series on Wnt signaling, the “inhibition of Wnt activity” value is given as “greater inhibition of Wnt activity”.
